Measured values published in the supplement of paper PMC7877785.
± gives the uncertainty stated by the source.

Experiment: self-splicing fitness, log relative to wild type (ln ratio); higher = more splicing; Tetrahymena group I intron in knt gene, E. coli kanamycin selection, DiMSum; sequences stand for … in CUCUCU…GGAGGGAAAAGUUAUCAGGCAUGCACCUGGUAGCUAGUCUUUAAACCAAUAGAUUGCAUCGGUUUAAAAGGCAAGACCGUCAAAUUGCGGGAAAGGGGUCAACAGCCGUUCAGUACCAAGUCUCAGGGGAAACUUUGAGAUGGCCUUGCAAAGGGUAUGGUAAUAAGCUGACGGACAUGGUCCUAACCACGCAGCCAAGUCCUAAGUCAACAGAUCUUCUGUUGAUAUGGAUGCAGUUCACAGACUAAAUGUCGGUCGGGGAAGAUGUAUUCUUCUCAUAAGAUAUAGUCGGACCUCUCCUUAAUGGGAGCUAGCGGAUGAAGUGAUGCAACACUGGAGCCGCUGGGAACUAAUUUGUAUGCGAAAGUAUAUUGAUUAGUUUUGGAGUACUCGUGGUCG
Procedure, shortened: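 Colonies from six replicate transformations of E. coli BL21(DE3) were pooled and amplicon-sequenced on an Illumina HiSeq 2500. The library placed an intron with all eight P1ex-region nucleotides randomised inside the knt kanamycin-resistance gene on pET-22b(+), and cells grew overnight at 37°C or 30°C on LB agar with or without 25 μg/mL kanamycin (plus 100 μg/mL carbenicillin, 50 μM IPTG, 0.2% rhamnose). Fitness is the DiMSum error-weighted combination of wild-type-normalised replicate fold changes, kanamycin versus none.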

Row | Sequence | self-splicing fitness (ln) (30 °C) | self-splicing fitness (ln) (37 °C)
1 | GGUAAGCAAUAUUACGUGCA | -0.586 ± 0.089 | -0.233 ± 0.13
2 | UCACAGCAAUAUUACGCAUG | -2.04 ± 0.098 | -1.58 ± 0.098
3 | AUAGAGCAAUAUUACGCCUU | -1.66 ± 0.12 | 0.354 ± 0.16
4 | ACCGAGCAAUAUUACGGUUG | -3.88 ± 0.21 | -2.51 ± 0.16
5 | AAUCAGCAAUAUUACGAUAG | -1.3 ± 0.1 | -0.239 ± 0.1
6 | UUCCAGCAAUAUUACGGUAG | -0.0875 ± 0.065 | 0.438 ± 0.079
7 | GUCCAGCAAUAUUACGUGCC | -1.16 ± 0.086 | -0.944 ± 0.11
8 | GAUAAGCAAUAUUACGCAAC |  | -0.343 ± 0.46
9 | UAUAAGCAAUAUUACGCUUC | -3.58 ± 0.38 | 
10 | UAGGAGCAAUAUUACGAGUU | -3.51 ± 0.27 | -2.48 ± 0.33
11 | AGGGAGCAAUAUUACGUAUA | -3.19 ± 0.42 | 
12 | GACGAGCAAUAUUACGGUUC |  | -3.11 ± 0.47
13 | GGACAGCAAUAUUACGUUUG | -0.577 ± 0.04 | -0.1 ± 0.058
14 | UCUCAGCAAUAUUACGCGGC | -4.17 ± 0.42 | -1.86 ± 0.27
15 | UCAGAGCAAUAUUACGCCUA | -2.28 ± 0.25 | -1.61 ± 0.26
16 | CUUUAGCAAUAUUACGGACA | -2.76 ± 0.38 | -1.44 ± 0.28
17 | CUGCAGCAAUAUUACGAAUU | -3.62 ± 0.22 | -3.18 ± 0.43
18 | CGGGAGCAAUAUUACGUAGG | -1.91 ± 0.099 | -1.6 ± 0.17
19 | ACGAAGCAAUAUUACGUGCC | -1.6 ± 0.079 | -0.89 ± 0.1
20 | GAAAAGCAAUAUUACGUUUC | -2.95 ± 0.17 | -2.69 ± 0.25
21 | GUCGAGCAAUAUUACGUCAG | -3.08 ± 0.16 | -2.98 ± 0.19
22 | GGCGAGCAAUAUUACGACUG | -0.978 ± 0.24 | -0.589 ± 0.29
23 | AGUAAGCAAUAUUACGCAUU | -2.48 ± 0.15 | -2.26 ± 0.18
24 | UUCCAGCAAUAUUACGGUGU | -1.19 ± 0.092 | -1.1 ± 0.13
25 | GCACAGCAAUAUUACGUGUG | -3.68 ± 0.16 | -2.22 ± 0.14
26 | AAAAAGCAAUAUUACGUACA | -0.777 ± 0.069 | -0.613 ± 0.071
27 | UCCGAGCAAUAUUACGAUAU | -1.5 ± 0.22 | -2.46 ± 0.41

Row | Sequence | self-splicing fitness (ln) (30 °C) | self-splicing fitness (ln) (37 °C)
28 | GAUAAGCAAUAUUACGAUGU | -0.525 ± 0.082 | -0.545 ± 0.1
29 | CUGUAGCAAUAUUACGGGUC | -4.47 ± 0.34 | -2.65 ± 0.26
30 | GCAGAGCAAUAUUACGUCUG | -3.95 ± 0.33 | -3.13 ± 0.47
31 | AUACAGCAAUAUUACGGAAU | -2.34 ± 0.1 | -1.54 ± 0.13
32 | UGUCAGCAAUAUUACGUUCG | 0.194 ± 0.073 | 0.709 ± 0.1
33 | GGACAGCAAUAUUACGGUCC | -3.67 ± 0.26 | -2.28 ± 0.23
34 | CGUUAGCAAUAUUACGUCAG | -0.851 ± 0.13 | 0.0149 ± 0.14
35 | UUUCAGCAAUAUUACGACCG | 0.263 ± 0.18 | -0.377 ± 0.29
36 | UCAAAGCAAUAUUACGCGAU |  | -1.64 ± 0.23
37 | AGAGAGCAAUAUUACGGGUG | -3.31 ± 0.32 | 
38 | AGUGAGCAAUAUUACGGUCU | -0.639 ± 0.11 | -0.463 ± 0.12
39 | UGUGAGCAAUAUUACGAUGG | -2.74 ± 0.2 | -2.27 ± 0.19
40 | AUAUAGCAAUAUUACGGUAA | -1.94 ± 0.15 | -0.869 ± 0.13
41 | AAUGAGCAAUAUUACGCCAU | -2.37 ± 0.39 | -1.9 ± 0.48
42 | GAUUAGCAAUAUUACGCAUU | -2.53 ± 0.14 | -2.25 ± 0.17
43 | CUUAAGCAAUAUUACGGCCU | -2.74 ± 0.25 | -3.1 ± 0.44
44 | CGCGAGCAAUAUUACGAAAG | -2.75 ± 0.26 | -1.65 ± 0.23
45 | GUCUAGCAAUAUUACGGUAG |  | -1.54 ± 0.26
46 | AGAAAGCAAUAUUACGGAUU | -2.21 ± 0.14 | -0.867 ± 0.16
47 | UGCUAGCAAUAUUACGAUGC | -4.2 ± 0.34 | 
48 | CUCUAGCAAUAUUACGGUGU | -3 ± 0.19 | -2.63 ± 0.3
49 | AUGGAGCAAUAUUACGACCG | -3.83 ± 0.37 | -1.19 ± 0.26
50 | UGGCAGCAAUAUUACGCUUC | -2.18 ± 0.28 | 
51 | UUGUAGCAAUAUUACGCAAA | -2.73 ± 0.35 | -1.05 ± 0.26
52 | UCUUAGCAAUAUUACGUCGG | -0.815 ± 0.21 | -0.0675 ± 0.2
53 | GUCGAGCAAUAUUACGUAGC | -1.18 ± 0.16 | -0.606 ± 0.22
54 | GCAAAGCAAUAUUACGCCCC | -0.913 ± 0.19 | -0.135 ± 0.31

Row | Sequence | self-splicing fitness (ln) (30 °C) | self-splicing fitness (ln) (37 °C)
55 | GUGGAGCAAUAUUACGUGCA | -2.14 ± 0.17 | -1.17 ± 0.16
56 | GCCGAGCAAUAUUACGCAUU | -2.73 ± 0.14 | -0.759 ± 0.13
57 | UAAUAGCAAUAUUACGGCGG | -1.27 ± 0.15 | -0.245 ± 0.16
58 | UUGGAGCAAUAUUACGAGCA | -3.18 ± 0.37 | -1.74 ± 0.31
59 | UCCUAGCAAUAUUACGUAGC | -3.05 ± 0.14 | -2.23 ± 0.16
60 | CGAUAGCAAUAUUACGUCGU | -4.24 ± 0.2 | -3.05 ± 0.21
61 | GAGAAGCAAUAUUACGAUAG | -3.28 ± 0.14 | -2.28 ± 0.17
62 | AGGAAGCAAUAUUACGAAGA | -2.9 ± 0.34 | -1.61 ± 0.32
63 | AAACAGCAAUAUUACGAUGC | -2.27 ± 0.058 | -1.55 ± 0.074
64 | CGUUAGCAAUAUUACGGUGG | -0.853 ± 0.056 | -0.115 ± 0.079
65 | AAGUAGCAAUAUUACGCUGG | -2 ± 0.12 | -0.92 ± 0.12
66 | AAAGAGCAAUAUUACGUUGU | -3.11 ± 0.13 | -2.51 ± 0.2
67 | GGGCAGCAAUAUUACGUCGG | -0.72 ± 0.12 | 0.392 ± 0.15
68 | GAAAAGCAAUAUUACGUUAC | -2.67 ± 0.12 | -1.84 ± 0.13
69 | CUACAGCAAUAUUACGUGUA | -3.12 ± 0.14 | -2.93 ± 0.16
70 | GCCCAGCAAUAUUACGGGGG | -3.34 ± 0.11 | -2.78 ± 0.15
71 | CUGGAGCAAUAUUACGAUGA | -3.18 ± 0.4 | -1.87 ± 0.24
72 | GCCUAGCAAUAUUACGGCGA | -2.64 ± 0.4 | -1.41 ± 0.28
73 | CGAUAGCAAUAUUACGACAU | -3.167 ± 0.021 | -1.95 ± 0.035
74 | AAUAAGCAAUAUUACGAGGG | -3.7 ± 0.37 | -2.9 ± 0.34
75 | CGCCAGCAAUAUUACGCGGU | -3.04 ± 0.13 | -3.3 ± 0.22
76 | CGCCAGCAAUAUUACGUUGC | -3.95 ± 0.29 | -2.45 ± 0.22
77 | UUUCAGCAAUAUUACGAGGU | -3.53 ± 0.2 | -2.78 ± 0.24
78 | CGUAAGCAAUAUUACGAUUU | -2.66 ± 0.14 | -1.58 ± 0.12
79 | CAAAAGCAAUAUUACGUCAG | -0.464 ± 0.062 | -0.392 ± 0.075
